Test results taken from article PMC11514473, “The transition state for coupled folding and binding of a disordered DNA binding domain resembles the unbound state” (Nucleic Acids Research, 2024).
Where no end group is shown, it is not given here.

Columns and labels:
[1] = molecular target: T1, CREB 285bZIP wild type (pseudo-WT, Cys to Ser) (human, UniProt P16220-1 285-339, C300S;C310S;C337S); assay: NMR; two-fold excess DNA over dimer; basic region folds to helix; 10 mM Mg2+; 10 mM MES pH 6.5, 150 mM NaCl, 10 mM MgCl2, 0.05% Tween-20, 25 C; NMR: 10 mM Tris-d11, 150 mM NaCl, 10 mM MgCl2, 1 mM NaN3, 5% D2O (NOE at 25 C); conditions: protein: recombinant; tags: extra N-terminal Gly after TEV cleavage; His6-GB1 removed; chain copies: 2; label: none; blunt, self-complementary, 2 copies
T1 sequence: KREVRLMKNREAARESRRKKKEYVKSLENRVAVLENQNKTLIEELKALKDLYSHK

[2] = molecular target: T2, CREB 285bZIP (bZIP domain of human cAMP-response element binding protein, residues 285-339, cysteines … (human)); assay: stopped-flow urea refolding kinetics (intrinsic tyrosine fluorescence); 285bZIP in 8 M urea mixed 1:10 with buffer of lower urea concentrations; 2.2, 4.5 and 9.1 uM CREB; excitation 278 nm, 305 nm cut-off filter; 25.0 C; traces fit to a 2-state reversible 2P to P2 model; L and k1 extrapolated by straight line fits to the absence of urea; dimer to monomers; conditions: both partners purified
T2 chain: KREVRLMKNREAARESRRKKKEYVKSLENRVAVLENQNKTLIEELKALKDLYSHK

Kd [2] [nM] | kon [2] [M⁻¹ s⁻¹] | Binder | binding result [1]
 |  | symmetric CRE DNA (NMR) (dsDNA) DNA 1: AGATGACGTCATCT DNA 2: AGATGACGTCATCT | binds
11 ± 2 | 7.1e+06 ± 500000 | CREB 285bZIP (bZIP domain of human cAMP-response element binding protein, residues 285-339, cysteines replaced with serines) (domain or fragment, also: homodimer) KREVRLMKNREAARESRRKKKEYVKSLENRVAVLENQNKTLIEELKALKDLYSHK | 
